One molecule from publication PMC3902948 can be followed below.

The target of data set [1] is Prp43-Strep;Strep-Ntr1(1-120) (Saccharomyces cerevisiae …, UniProt P53131;Q06411 1-767;1-120, |). Kind of data set: UV cross-linking.
The next data set deals with Prp43-Strep (Saccharomyces cerevisiae S288c, UniProt P53131 1-767). Kind of data set: UV cross-linking.
Chain of Prp43-Strep (P53131 whole entry): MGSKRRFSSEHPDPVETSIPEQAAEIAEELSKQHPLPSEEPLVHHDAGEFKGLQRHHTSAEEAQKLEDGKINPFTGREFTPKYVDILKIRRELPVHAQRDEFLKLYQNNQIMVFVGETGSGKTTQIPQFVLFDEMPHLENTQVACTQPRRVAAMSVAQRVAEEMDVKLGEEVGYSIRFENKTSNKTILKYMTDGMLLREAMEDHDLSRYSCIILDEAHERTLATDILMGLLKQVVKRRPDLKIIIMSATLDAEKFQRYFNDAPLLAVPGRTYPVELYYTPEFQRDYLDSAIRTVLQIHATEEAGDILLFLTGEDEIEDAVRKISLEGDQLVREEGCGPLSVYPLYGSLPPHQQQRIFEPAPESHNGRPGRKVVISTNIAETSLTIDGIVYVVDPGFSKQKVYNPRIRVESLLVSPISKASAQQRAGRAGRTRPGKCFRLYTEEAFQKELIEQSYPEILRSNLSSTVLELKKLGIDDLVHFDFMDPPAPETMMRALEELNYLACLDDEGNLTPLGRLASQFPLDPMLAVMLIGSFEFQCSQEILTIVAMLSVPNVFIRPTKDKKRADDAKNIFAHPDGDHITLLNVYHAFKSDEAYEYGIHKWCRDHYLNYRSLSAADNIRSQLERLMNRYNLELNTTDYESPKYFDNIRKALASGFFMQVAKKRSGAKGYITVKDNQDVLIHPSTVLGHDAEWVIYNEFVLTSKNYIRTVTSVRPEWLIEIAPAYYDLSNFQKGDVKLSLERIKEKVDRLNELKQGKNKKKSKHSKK

Chain of Prp43-Strep;Strep-Ntr1(1-120) (P53131 whole entry, chain 1 of 2): as the sequence (P53131 whole entry) above
Chain of Prp43-Strep;Strep-Ntr1(1-120) (Q06411 1-120, chain 2 of 2): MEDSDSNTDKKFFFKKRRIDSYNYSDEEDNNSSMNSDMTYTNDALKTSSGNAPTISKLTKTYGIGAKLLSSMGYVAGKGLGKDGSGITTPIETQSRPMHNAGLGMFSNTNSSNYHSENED

Regarding GACGGGCUGUUGGUGAUGGAC (ssRNA) [21-mer ssRNA], the binding result (in data set [1]; with Prp43-Strep) was “binds” throughout.
